Biological target: GLP-1 receptor (GLP-1R) on HEK293/CRE-Luc/GLP1R cells (UniProt P43220 24-463, limits assumed)
Test: cell-based or functional assay

| relative activity compared with dulaglutide (CRE-luciferase reporter, HEK293/CRE-Luc/GLP1R cells) | Binder |
| --- | --- |
| 40.4% | GLP1-L1-Fc2-L2-ST crosslinked with 20 kDa PEG (Fc fusion, 20 kDa PEG on the added C-terminal GGGAA (GGGAA-PEG joined by sortase A to the T of LPET)) HGEGTFTSDVSSYLEEQAAKEFIAWLVKGGGGGGGSGGGGSGGGGSAVECPPCPAPPVAGPSVFLFPPKPKDTLMISRTPEVTCVVVDVSHEDPEVQFNWYVDGVEVHNAKTKPREEQFNSTFRVVSVLTVVHQDWLNGKEYKCKVSNKGLPAPIEKTISKTKGQPREPQVYTLPPSREEMTKNQVSLTCLVKGFYPSDIAVEWESNGQPENNYKTTPPMLDSDGSFFLYSKLTVDKSRWQQGNVFSCSVMHEALHNHYTQKSLSLSPGGSGGGSGGGGSGGGGSLPETGGGAA |
| 32.9% | GLP1-L1-Fc2-L2-ST crosslinked with 40 kDa PEG (Fc fusion, 40 kDa PEG on the added C-terminal GGGAA (GGGAA-PEG joined by sortase A to the T of LPET)) HGEGTFTSDVSSYLEEQAAKEFIAWLVKGGGGGGGSGGGGSGGGGSAVECPPCPAPPVAGPSVFLFPPKPKDTLMISRTPEVTCVVVDVSHEDPEVQFNWYVDGVEVHNAKTKPREEQFNSTFRVVSVLTVVHQDWLNGKEYKCKVSNKGLPAPIEKTISKTKGQPREPQVYTLPPSREEMTKNQVSLTCLVKGFYPSDIAVEWESNGQPENNYKTTPPMLDSDGSFFLYSKLTVDKSRWQQGNVFSCSVMHEALHNHYTQKSLSLSPGGSGGGSGGGGSGGGGSLPETGGGAA |
| 98.1% | GLP1-L1-Fc2-L2-ST (Fc fusion) HGEGTFTSDVSSYLEEQAAKEFIAWLVKGGGGGGGSGGGGSGGGGSAVECPPCPAPPVAGPSVFLFPPKPKDTLMISRTPEVTCVVVDVSHEDPEVQFNWYVDGVEVHNAKTKPREEQFNSTFRVVSVLTVVHQDWLNGKEYKCKVSNKGLPAPIEKTISKTKGQPREPQVYTLPPSREEMTKNQVSLTCLVKGFYPSDIAVEWESNGQPENNYKTTPPMLDSDGSFFLYSKLTVDKSRWQQGNVFSCSVMHEALHNHYTQKSLSLSPGGSGGGSGGGGSGGGGSLPETG |

Source: patent US20220000984A1 (JIANGSU GENSCIENCES, published 2022)
